Data as given in publication PMC4429025, “Characterization of Mutants of Human Small Heat Shock Protein HspB1 Carrying Replacements in the N-Terminal Domain and Associated with Hereditary Motor Neuron Diseases” (PLoS ONE, 2015).

What was measured:
Experiment in all cases: cross-linking; disulfide crosslinking: reduced proteins alone or mixed at 30 uM per monomer each, 1 h at 42°C, then dialysis against 50 mM Tris/HCl pH 7.4, 50 mM KCl, 1 mM MgCl2, 0.1 mM PMSF at 4, 15 or 37°C; non-reducing SDS PAGE
Details in all cases: both partners purified
[1] = target: T1, wild type HspB1 (human small heat shock protein HspB1) (human, UniProt P04792 1-205)
T1 construct: human small heat shock protein HspB1, wild type, cDNA in pET23b; also called WT HspB1; WT; source: E. coli BL21 (DE3) pLysS, purified (ammonium sulfate fractionation, HiTrap Q, Superdex 200)

G34R mutant of HspB1 = target: T2, G34R mutant of HspB1 (human, UniProt P04792 1-205, G34R)
T2 construct: human HspB1 with the disease-associated replacement G34R, in pET23b (NdeI/XhoI); Mutation occurs in patients with distal hereditary motor neuropathy; source: E. coli BL21 (DE3) pLysS, purified (ammonium sulfate fractionation, HiTrap Q, Superdex 200)

P39L mutant of HspB1 = target: T3, P39L mutant of HspB1 (human, UniProt P04792 1-205, P39L)
T3 construct: human HspB1 with the disease-associated replacement P39L, in pET23b (NdeI/XhoI); Mutation occurs in patients with type II Charcot-Marie-Tooth disease or dHMN; source: E. coli BL21 (DE3) pLysS, purified (ammonium sulfate fractionation, HiTrap Q, Superdex 200)

E41K mutant of HspB1 = target: T4, E41K mutant of HspB1 (human, UniProt P04792 1-205, E41K)
T4 construct: human HspB1 with the disease-associated replacement E41K, in pET23b (NdeI/XhoI); Mutation occurs in patients with distal hereditary motor neuropathy; source: E. coli BL21 (DE3) pLysS, purified (ammonium sulfate fractionation, HiTrap Q, Superdex 200)

Measured: binding result

T2 sequence (P04792 whole entry G34R): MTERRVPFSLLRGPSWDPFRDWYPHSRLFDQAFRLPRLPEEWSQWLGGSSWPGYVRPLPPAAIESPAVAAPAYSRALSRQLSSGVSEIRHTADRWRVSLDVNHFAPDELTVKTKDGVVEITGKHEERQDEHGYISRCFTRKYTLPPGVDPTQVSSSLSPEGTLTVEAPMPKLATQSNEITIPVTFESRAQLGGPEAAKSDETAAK
T1 sequence (P04792 whole entry): as the sequence (P04792 whole entry G34R) above, with R34G counted along it
T3 sequence (P04792 whole entry P39L): as the sequence (P04792 whole entry G34R) above, with R34G, P39L counted along it
T4 sequence (P04792 whole entry E41K): as the sequence (P04792 whole entry G34R) above, with R34G, E41K counted along it

B1: double mutant of HspB6 containing the substitutions C46S/E116C (natural protein, human, UniProt O14558 1-160, looked up)
chain: MEIPVPVQPSWLRRASAPLPGLSAPGRLFDQRFGEGLLEAELAALSPTTLAPYYLRAPSVALPVAQVPTDPGHFSVLLDVKHFSPEEIAVKVVGEHVEVHARHEERPDEHGFVARCFHRRYRLPPGVDPAAVTSALSPEGVLSIQAAPASAQAPPPAAAK
notes: HspB6 lacking the natural Cys of the N-terminal domain and with a single Cys at the position homologous to Cys137 of HspB1; also called Cys mutant of HspB6; Cys-mutant of HspB6; source: expressed and purified as described earlier [36]
binds: [1] | G34R mutant of HspB1 | P39L mutant of HspB1 | E41K mutant of HspB1
